Experimental data published in paper PMC10218236, “Structural Optimization and Interaction Study of a DNA Aptamer to L1 Cell Adhesion Molecule”.

Target: L1CAM protein (Sino Biological) (UniProt P32004 20-1120)
Test: DMS footprinting; 100 nM DNA, 300 nM L1CAM; PBS, 4.5 g/L glucose, 5 mM MgCl2, 1 mg/mL BSA, 0.1 mg/mL herring sperm DNA; 30 min at 4 °C (or 25/37 °C); pH not stated
Conditions: protein: commercial; label: FAM (3' FAM in DMS footprinting); hairpin, two stems, two loops, T bulge in stem I

Sequence of L1CAM protein (Sino Biological) (P32004 20-1120): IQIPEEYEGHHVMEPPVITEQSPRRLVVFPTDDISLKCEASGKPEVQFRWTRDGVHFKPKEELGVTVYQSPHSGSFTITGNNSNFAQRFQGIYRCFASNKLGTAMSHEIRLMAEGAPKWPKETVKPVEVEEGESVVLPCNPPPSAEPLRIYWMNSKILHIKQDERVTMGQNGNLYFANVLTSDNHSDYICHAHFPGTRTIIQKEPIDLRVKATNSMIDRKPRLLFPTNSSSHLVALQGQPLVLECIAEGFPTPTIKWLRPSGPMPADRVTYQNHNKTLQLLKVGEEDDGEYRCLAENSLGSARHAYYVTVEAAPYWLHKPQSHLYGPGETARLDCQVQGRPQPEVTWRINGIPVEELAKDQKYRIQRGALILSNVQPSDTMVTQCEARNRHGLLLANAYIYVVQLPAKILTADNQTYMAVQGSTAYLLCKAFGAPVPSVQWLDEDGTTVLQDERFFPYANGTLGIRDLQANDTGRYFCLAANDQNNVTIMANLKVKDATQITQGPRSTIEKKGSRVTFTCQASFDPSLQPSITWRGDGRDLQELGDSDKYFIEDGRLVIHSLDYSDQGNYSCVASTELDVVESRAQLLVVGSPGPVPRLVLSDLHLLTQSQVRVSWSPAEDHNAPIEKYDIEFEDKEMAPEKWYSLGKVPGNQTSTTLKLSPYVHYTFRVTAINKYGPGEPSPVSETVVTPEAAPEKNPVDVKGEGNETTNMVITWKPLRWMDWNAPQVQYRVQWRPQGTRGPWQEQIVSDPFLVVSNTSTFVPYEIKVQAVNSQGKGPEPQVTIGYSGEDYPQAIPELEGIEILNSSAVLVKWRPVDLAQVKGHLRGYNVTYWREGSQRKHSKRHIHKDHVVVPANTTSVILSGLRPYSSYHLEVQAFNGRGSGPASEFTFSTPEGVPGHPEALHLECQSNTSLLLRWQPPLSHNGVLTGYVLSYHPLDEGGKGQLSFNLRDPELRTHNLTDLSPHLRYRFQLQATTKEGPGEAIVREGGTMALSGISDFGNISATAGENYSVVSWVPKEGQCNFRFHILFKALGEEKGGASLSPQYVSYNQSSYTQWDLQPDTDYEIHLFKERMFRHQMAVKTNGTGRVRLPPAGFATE

B1: yly20 (ssDNA)
DNA: CAGATAGGGGGTAGCTCGGTCGTGTTTTTGGGTTGTTTGGTGGGTCTTCTG
- binding result: binds
